Laboratory results published in patent US20190345232A1 (GENEURO, published 2019).

Target: T1, linear peptide SLDKHKHKKLQSFYP (SEQ ID NO:9) from HERV-K-Env (human endogenous retrovirus type K …)
T1 construct: 15-mer synthesized on a solid support in the Pepscan peptide array; It corresponds to the 298-312 region of the HERV-K-Env protein described by Dewannieux et al 2005
T1 peptide: SLDKHKHKKLQSFYP
Test: Pepscan peptide array ELISA, antibody at 1 µg/ml

B1: GN_mAb_Env_K01 (antibody, V domains shown)
VH: QVQLQQPGAELVRPGASVKLSCKASGYTFTSYWMNWVKQRPEQGLEWIGRIDPYDSETHYNQKFKDKAILTVDKSSSTAYMQLSSLTSEDSAVYYCASLYYYGISLWGQGTLVTVS
VL: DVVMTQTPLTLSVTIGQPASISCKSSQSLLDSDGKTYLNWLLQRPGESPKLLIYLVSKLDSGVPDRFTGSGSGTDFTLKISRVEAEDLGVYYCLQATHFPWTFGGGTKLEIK
notes: also called GN K01; GN K01 Ig
binding result: binds
